Laboratory results reported in US20150259408A1 (PROTHENA BIOSCIENCES, published 2015).
Changes are numbered by the printed parent chain. Each block holds one binder with its values, some of them ahead of it.

Tests used:
[1] = target: T1, human LAMA4 LG4-5 fragment displayed on 293 cells (pDisplay) (human, UniProt Q16363 1453-1821, limits assumed); assay: flow cytometry, serial dilution on 293 cells displaying LG4-5
T1 sequence: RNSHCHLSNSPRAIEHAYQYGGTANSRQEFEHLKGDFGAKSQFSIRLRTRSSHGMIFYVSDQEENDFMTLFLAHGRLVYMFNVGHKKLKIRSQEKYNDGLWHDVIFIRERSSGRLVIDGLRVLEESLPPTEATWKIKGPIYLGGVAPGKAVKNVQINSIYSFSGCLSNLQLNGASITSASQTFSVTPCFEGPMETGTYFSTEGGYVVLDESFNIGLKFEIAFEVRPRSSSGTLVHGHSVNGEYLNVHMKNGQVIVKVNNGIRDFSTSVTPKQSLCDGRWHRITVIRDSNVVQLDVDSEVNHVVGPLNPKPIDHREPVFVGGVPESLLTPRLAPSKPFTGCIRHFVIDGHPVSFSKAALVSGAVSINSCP
Procedure: Chimeric 15F7, H1L1, H1L2, H2L1, H2L2, and buffer alone were tested for their ability to bind to LAMA4-fragment-displaying cells. To test LAMA4 binding capacity, serially diluted antibodies were pre-incubated with human 293 cells displaying LG4-5, followed by anti-human-650 secondary antibody incubation as described in the Materials and Methods. Fluorescent signal was assessed via flow cytometric analyses and plotted as mean fluorescence intensity (MFI) as shown in FIG. 8.
(§1) Human LAMA4 G-domains 1-5 and variants were cloned into pDisplay expression construct (Life Technologies) and transiently transfected into 293 cells using standard procedures. Anti-LAMA4 antibodies were incubated with cells for 30 min at 4° C. and followed by anti-mouse-650 for 30 minutes at 4° C. Cells were analyzed for anti-laminin binding by flow cytometry using standard procedures.

[2] = target: T2, human LAMA4 LG1-3 fragment displayed on 293 cells (pDisplay) (human, UniProt Q16363 830-1430, limits assumed); assay: flow cytometry on 293 cells displaying LAMA4 fragments
T2 sequence: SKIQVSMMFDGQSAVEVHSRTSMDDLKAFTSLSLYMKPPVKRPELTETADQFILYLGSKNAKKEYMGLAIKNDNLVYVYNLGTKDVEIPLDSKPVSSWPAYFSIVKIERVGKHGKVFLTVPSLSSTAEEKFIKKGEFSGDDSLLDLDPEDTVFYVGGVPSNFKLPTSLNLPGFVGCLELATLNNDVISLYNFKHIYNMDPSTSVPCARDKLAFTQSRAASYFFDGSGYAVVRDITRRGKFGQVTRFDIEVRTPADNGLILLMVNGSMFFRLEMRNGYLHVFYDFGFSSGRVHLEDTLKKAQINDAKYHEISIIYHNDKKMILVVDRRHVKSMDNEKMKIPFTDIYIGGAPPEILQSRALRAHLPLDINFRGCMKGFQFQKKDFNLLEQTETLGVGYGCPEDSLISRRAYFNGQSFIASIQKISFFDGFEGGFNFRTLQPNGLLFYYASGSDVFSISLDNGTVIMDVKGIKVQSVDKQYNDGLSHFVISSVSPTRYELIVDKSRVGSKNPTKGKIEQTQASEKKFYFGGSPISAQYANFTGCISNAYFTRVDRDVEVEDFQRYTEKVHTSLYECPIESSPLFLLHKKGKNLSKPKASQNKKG
Procedure: (§2) The specific binding of the chimeric 15F7, […] H1L2, H2L1, and H2L2 antibodies to the LG4-5 modules of the G domain of LAMA4 was tested by assessing the antibodies' ability to stain LAMA4-fragment-displaying 293 cells by flow cytometry, as shown in FIG. 9. Each of the antibodies was able to specifically bind 293 cells displaying LG1-5 and LG4-5, but not LG1-3.
as §1

[3] = target: T3, human LAMA4 G domain LG1-5 displayed on 293 cells (pDisplay) (human, UniProt Q16363 830-1821, limits assumed); assay: as above
T3 construct: The pDisplay vector parts (leader, tags, PDGFR transmembrane anchor) are not described; also called LAMA4-displaying 293 cells; Human LAMA4 G-domains 1-5
T3 sequence: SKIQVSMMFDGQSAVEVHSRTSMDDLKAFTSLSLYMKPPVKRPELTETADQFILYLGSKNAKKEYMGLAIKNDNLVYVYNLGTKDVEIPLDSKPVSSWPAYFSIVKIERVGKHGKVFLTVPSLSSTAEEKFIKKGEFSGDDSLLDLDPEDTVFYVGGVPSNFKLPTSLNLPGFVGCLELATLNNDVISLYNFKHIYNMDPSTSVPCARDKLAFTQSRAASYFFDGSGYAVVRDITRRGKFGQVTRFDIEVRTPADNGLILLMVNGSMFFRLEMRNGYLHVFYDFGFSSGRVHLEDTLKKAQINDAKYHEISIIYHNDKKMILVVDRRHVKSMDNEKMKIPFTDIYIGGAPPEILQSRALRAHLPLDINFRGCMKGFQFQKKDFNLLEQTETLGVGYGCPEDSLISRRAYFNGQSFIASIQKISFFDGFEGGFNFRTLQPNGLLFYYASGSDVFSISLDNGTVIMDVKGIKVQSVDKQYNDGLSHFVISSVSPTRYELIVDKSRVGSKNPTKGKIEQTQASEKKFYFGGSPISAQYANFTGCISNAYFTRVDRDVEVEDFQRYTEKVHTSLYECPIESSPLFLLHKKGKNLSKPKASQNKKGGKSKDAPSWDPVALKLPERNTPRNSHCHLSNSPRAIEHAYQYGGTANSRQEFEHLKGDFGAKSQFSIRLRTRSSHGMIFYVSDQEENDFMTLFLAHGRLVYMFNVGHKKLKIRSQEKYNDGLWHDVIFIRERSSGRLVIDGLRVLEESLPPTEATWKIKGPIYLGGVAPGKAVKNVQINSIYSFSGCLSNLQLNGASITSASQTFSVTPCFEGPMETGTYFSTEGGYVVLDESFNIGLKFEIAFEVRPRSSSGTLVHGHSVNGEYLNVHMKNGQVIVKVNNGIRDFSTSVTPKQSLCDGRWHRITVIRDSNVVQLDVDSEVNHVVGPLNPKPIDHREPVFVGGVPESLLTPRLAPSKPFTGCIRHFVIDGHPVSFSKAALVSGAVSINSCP
Procedure: as §2, §1

[4] = target: T4, LAMA4 / purified His-LAMA4 (species not stated); assay: SPR (Biacore), full kinetic analysis; species of LAMA4 not stated
T4 chain: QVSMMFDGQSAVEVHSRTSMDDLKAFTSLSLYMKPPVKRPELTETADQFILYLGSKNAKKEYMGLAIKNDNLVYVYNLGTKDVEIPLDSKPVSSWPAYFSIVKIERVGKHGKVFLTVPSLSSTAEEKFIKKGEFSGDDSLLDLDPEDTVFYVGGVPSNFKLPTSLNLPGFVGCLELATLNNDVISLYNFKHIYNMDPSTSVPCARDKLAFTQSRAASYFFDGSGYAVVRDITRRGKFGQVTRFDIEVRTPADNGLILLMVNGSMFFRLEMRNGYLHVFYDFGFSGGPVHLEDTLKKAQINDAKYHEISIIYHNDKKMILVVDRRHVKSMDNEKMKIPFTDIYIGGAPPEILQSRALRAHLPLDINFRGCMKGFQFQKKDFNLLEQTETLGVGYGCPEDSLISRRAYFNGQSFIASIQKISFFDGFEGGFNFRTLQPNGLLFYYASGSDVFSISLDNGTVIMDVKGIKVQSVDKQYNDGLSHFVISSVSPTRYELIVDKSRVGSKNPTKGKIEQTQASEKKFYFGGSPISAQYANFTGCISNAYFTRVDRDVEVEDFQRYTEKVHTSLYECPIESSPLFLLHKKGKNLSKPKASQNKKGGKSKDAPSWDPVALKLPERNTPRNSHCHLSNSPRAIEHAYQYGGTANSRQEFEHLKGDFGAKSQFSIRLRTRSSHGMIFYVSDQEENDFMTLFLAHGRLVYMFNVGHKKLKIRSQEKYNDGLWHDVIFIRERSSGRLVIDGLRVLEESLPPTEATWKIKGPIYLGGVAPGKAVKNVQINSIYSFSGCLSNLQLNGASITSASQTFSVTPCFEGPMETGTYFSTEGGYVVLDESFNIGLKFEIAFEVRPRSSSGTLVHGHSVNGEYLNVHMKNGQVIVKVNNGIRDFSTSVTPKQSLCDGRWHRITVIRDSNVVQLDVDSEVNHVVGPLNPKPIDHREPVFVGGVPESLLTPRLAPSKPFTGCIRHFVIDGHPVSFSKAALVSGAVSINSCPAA

binding result [1]: binds
binding result [2]: no binding
binding result [3]: binds
Kd [4]: 0.12 nM
koff [4]: 0.000183 s⁻¹
kon [4]: 1.5e+06 M⁻¹ s⁻¹
B1: humanized 15F7 variant H1L1 (Hu15F7VHv1/Hu15F7VLv1) (antibody, V domains shown)
VH: EVQLQQSGAEVKKPGSSVKLSCKASGYTFTSYGLSWVKQRAGQGLEWIGEIFPRSGNTYYNEKFKGKATLTADKSSSTAYMELRSLRSEDTAVYFCARGVRSPGAMDYWGQGTLVTVSS
VL: DIQMTQSSSSLSASVGDRVTITCKASEDIYNRLAWYQQKPGNAPRLLISGATSLETGVPSRFSGSGSGKDYTLTISSLQTEDFATYYCQQYWSIPYTFGGGTKLEIKR
notes: They are human, since it was captured by a goat anti-human Fc sensor; also called VHv1/VLv1

binding result [2]: no binding
Kd [4]: 0.1 nM
koff [4]: 0.000151 s⁻¹
kon [4]: 1.5e+06 M⁻¹ s⁻¹
B2: chimeric 15F7 (antibody, V domains shown)
VH: B1 VH with E1Q, A9T, V11L, K12A, K13R, S16A, S17A, R87T, T91S, L114S
VL: B1 VL with L11F, A13V, V15L, T74S, S76T, F83V, K103N

binding result [1]: binds
binding result [2]: no binding
binding result [3]: binds
Kd [4]: 0.13 nM
koff [4]: 0.000205 s⁻¹
kon [4]: 1.56e+06 M⁻¹ s⁻¹
B3: humanized 15F7 variant H2L1 (Hu15F7VHv2/Hu15F7VLv1) (antibody, V domains shown)
VH: B1 VH with A41P, L70I
VL: B1 VL
notes: also called VHv2/VLv1

binding result [1]: binds
binding result [2]: no binding
binding result [3]: binds
B4: humanized 15F7 variant H1L2 (Hu15F7VHv1/Hu15F7VLv2) (antibody, V domains shown)
VH: B1 VH
VL: B1 VL with S8P, R45K, Y71F, T80P, L104V
notes: also called VHv1/VLv2

binding result [1]: binds
binding result [2]: no binding
binding result [3]: binds
B5: humanized 15F7 variant H2L2 (Hu15F7VHv2/Hu15F7VLv2) (antibody, V domains shown)
VH: B1 VH with A41P, L70I
VL: B1 VL with S8P, R45K, Y71F, T80P, L104V
notes: also called VHv2/VLv2
